T1: bacterially produced recombinant murine La protein (rmLa) (murine, UniProt P32067 1-415)
T1 construct: also called prokaryote-produced murine La protein
T1 sequence (looked up): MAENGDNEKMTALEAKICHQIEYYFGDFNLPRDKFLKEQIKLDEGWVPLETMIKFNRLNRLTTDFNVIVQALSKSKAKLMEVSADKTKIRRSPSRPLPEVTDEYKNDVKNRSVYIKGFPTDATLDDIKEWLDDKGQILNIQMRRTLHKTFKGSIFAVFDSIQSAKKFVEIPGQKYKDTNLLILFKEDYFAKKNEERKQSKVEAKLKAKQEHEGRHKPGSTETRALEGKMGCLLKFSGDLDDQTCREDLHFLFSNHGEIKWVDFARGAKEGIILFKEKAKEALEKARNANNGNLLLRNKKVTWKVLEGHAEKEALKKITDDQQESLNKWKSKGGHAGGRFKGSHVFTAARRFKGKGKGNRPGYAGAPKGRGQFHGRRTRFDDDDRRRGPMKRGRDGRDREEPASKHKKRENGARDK

T2: recombinant human La protein (rhLa), SEQ ID No. 1 with His tag (human, UniProt P05455 1-408)
T2 construct: Also used to decorate the surface of 3T3 and HEK 293T PSCA cells; also called rhLa protein; His 6hLa protein; not shown: His tag
T2 sequence: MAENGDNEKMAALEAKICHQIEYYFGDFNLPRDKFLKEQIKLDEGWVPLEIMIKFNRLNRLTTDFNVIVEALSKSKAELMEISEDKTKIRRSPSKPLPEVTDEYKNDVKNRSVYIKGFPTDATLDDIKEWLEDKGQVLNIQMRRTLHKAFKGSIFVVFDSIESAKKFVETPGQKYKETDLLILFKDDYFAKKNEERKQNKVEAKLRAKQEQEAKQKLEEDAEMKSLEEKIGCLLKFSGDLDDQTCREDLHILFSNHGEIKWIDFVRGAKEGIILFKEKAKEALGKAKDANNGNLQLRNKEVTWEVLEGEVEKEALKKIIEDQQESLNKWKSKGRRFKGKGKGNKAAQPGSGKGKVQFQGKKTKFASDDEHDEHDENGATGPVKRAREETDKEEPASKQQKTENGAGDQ

T3: eukaryotic murine La protein (mLa) (murine, UniProt P32067 1-415)
T3 construct: In total extracts or fixed cells; also called endogenous mLa protein; eukaryote-produced murine La protein
T3 sequence (looked up): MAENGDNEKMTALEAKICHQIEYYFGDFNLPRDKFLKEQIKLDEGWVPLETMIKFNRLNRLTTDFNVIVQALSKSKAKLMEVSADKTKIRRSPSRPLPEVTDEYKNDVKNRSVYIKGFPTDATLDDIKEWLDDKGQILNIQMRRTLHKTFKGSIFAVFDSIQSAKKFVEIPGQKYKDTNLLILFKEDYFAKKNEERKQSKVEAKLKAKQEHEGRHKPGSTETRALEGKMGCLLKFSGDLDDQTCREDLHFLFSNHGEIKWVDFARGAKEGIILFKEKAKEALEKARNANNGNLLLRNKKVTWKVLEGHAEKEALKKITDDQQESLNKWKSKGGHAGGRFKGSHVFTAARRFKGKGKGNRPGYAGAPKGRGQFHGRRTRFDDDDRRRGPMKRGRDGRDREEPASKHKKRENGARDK


Experiments:
[1] = biological target: T1, bacterially produced recombinant murine …; assay: immunoblot, bacterially produced rmLa
[2] = biological target: T2, recombinant human La protein (rhLa), …; assay: method and form of the antigen not stated
[3] = biological target: T3, eukaryotic murine La protein (mLa); assay: immunoblot, 3T3 total extract

| Binder | binding result [1] | Kd [2] | binding result [3] |
| --- | --- | --- | --- |
| anti-La monoclonal antibody 27E (antibody, IgG2b, V domains shown) VH: VQLQESGAELARPGASVKLSCKASGYSFRSYGINWVKQRTGQGLEWIGEIYPGSGTTFYNEKFRGKATLTADKSSSTAYMQLKSLTSEDSAVYFCARHGGYPFYFDYWGQGTTLTVSS VL: DIVMTQSPAIMSASPGEKVTISCSASSSVSYMYWYQQKPGSSPKPWIYRTSNLASGVPARFSGSGSGTSYSLTISSMEAEDAATYYCQQYHSYPRTFGGGTKLEIKR | binds | ~0.1 nM | binds |
| anti-La monoclonal antibody 32A (antibody, IgG1, V domains shown) VH: VQLQQSGAELARPGASVKLSCKASGYTFTTYGLTWVKQRTGQGLEWIGEIFPGSGTTFYNEKFNDKATLTADKSSSTAYMQLTSLTSEDSAVYFCARYSNYPYYFDYWGQGTTLTVSS VL: QIVLTQSPTIMSASPGEKVTISCSASSSVSYMYWYQQKPGSSPKPWIYRTSNLASGVPDRFSGSGSGTSYSLTISSMEAEDAATYYCQQYHSYPRTFGGGTKLEIKR | no binding | ~0.1 nM | no binding |
| anti-La monoclonal antibody 5B9 (antibody, IgG2a, V domains shown, also called anti-La-5B9) VH: VQLEESGAELVKPGASVKLSCKASGYAFTHYYIYWIKQRPGQGLEWIGGVNPSNGGTHFNEKFKSKATLTVDKSSSTAYMQLSSLTSEDSAVYYCTRSEYDYGLGFAYWGQGTLVTVSA VL: IVLTQTTSSLAVSAGEKVTMSCKSSQSLLNSRTPKNYLAWYQQKPGQSPKLLIYWASTRKSGVPDRFTGSGSGTDFTLTISSVQAEDLAVYYCKQSYNLLTFGAGTKLELKR |  | ~0.1 nM |  |
| anti-La monoclonal antibody 24BG7 (antibody, IgG1, V domains shown) VH: QVQLQQSGAELARPGASVKLSCKASGYSLTNYGISWVKQRTGQGLEWIGEIYRGSGNSYYNEKFKGKASLTADKSSSTAYMQLSSLTSEDSAVYFCARGGLSFAYWGQGTLVTVSA VL: QIVLTQSPAIMSASPGEKVTMTCSASSSVTYMHWYQQKSGTSPKRWIYDTSKLASGVPARFSGSGSGTSYSLTISTMEAEDAATYYCQQWISNPPTFGGGTKLEIKR |  | ~0.1 nM |  |
| anti-La monoclonal antibody 22A (antibody, IgG1, V domains shown) VH: QVKLEESGPELVKPGAPVKISCKTSGYTFTNYYIYWVKQRPGQGLEWIGYIYPGNGGTAYNQKFKDKATLTADNPSNTAYMQLSSLTSEDSAVYLCARRGALGYYFDYWGQGTTLTVSS VL: QIVLTQSPAIMSASPGEKVTMTCSASSSVSYMYWYQQKSGTSPKRWIYDTSKLASGVPARFSGSGSGTSYSLTISSMEAEDAATYYCQQWSSNPQFGTGTKLEVKR | no binding | ~0.1 nM | no binding |
| anti-La monoclonal antibody 7B6 (antibody, V domains shown, Used as hybridoma supernatant or mAb; also called mAk 7B6; anti-La 7B6) VH: VKLQESGGGLVQPGRPMKLSCVASGFTFSDFWMNWVRQSPEKGLEWVAQIRNKPNNYETYYSDSLKGRFTISRDDSKSSVYLQMNNLRPEDMGIYYCTLGNSWFAYWGQGTLVTVS VL: DIVITQSPSSLAVSAGEKVTMSCRSSQSLLDSRTRKNYLAWYQQKPGQSPKLLIYWASTRESGVPDRFTGSGSGTDFTLTISNVQAEDLAVYYCKQSYNLPTFGGGTKLEI |  | ~0.1 nM |  |
| anti-La monoclonal antibody 312B (antibody, IgG1, V domains shown) VH: QVKLQESGAELMKPGSSVKFSCKAAGYTFTDYWIEWLKQRPGHGLEWIGEILPGSVSIKYNEKFKGKATFTADTSSNTAYMQLSSLTSEDSAVYYCARSRSIYDGYFYYWGQGTTLTVSS VL: DIVMTQSTASLSASVGETVTITCRASENIYTYLAWYQQKQGKSPQLLVYNAKTLAEGVPSRFSGSGSGTQFSLRINSLQPEDFGSYYCQHHYGTPYTFGGGTKLEIK | binds | ~0.1 nM | binds |
| anti-La monoclonal antibody 2F9 (antibody, IgG1, V domains shown) VH: EVQLQESGPGILQPSQTLSLTCSFSGFSLSTSGMGVSWIRQPSGKGLEWLAHIYWDDDKGYNPSLKSRLTISKDTSRNQVFLKITSVDTADTATYYCARGDVEFDYWGQGTTLTVSS VL: DIVLTQSTASLAVSLGQRATISCRASESVDSYGNSFMHWYQQKPGQPPKLLIYRASNLESGIPARFSGSGSRTDFTLTINPVEADDVATYYCQQSNEDPPTFGSGTKLEIK | binds |  |  |

From US20130216544A1 (GEMOAB MONOCLONALS, published 2013)
